In the Human Domainome abundance scans (Beltran et al. 2025):
± gives the uncertainty stated by the source.

B1: SAM and SH3 domain-containing protein 1, residues 630 to 700; numbered along this chain, O94885 (parent)
chain: GRPPQPKSVEDLLDRINLKEHMPTFLFNGYEDLDTFKLLEEEDLDELNIRDPEHRAVLLTAVELLQEYDSN

Variants of: B1
Test: abundance fitness (aPCA) (normalised: wild type 0, dead -1); higher = more abundant; growth selection in yeast, the domain comes from the species named
Conditions: Homo sapiens

| Variant | abundance fitness |
| --- | --- |
| GRPPQPKSVEDLDDRINLKEHMPTFLFNGYEDLDTFKLLEEEDLDELNIRDPEHRAVLLTAVELLQEYDSN [L13D] | -0.762 ± 0.1 |
| GRPPQPKSVEDLCDRINLKEHMPTFLFNGYEDLDTFKLLEEEDLDELNIRDPEHRAVLLTAVELLQEYDSN [L13C] | -0.946 ± 0.1 |
| GRPPQPKSVEDLEDRINLKEHMPTFLFNGYEDLDTFKLLEEEDLDELNIRDPEHRAVLLTAVELLQEYDSN [L13E] | -0.572 ± 0.081 |
| GRPPQPKSVEDLQDRINLKEHMPTFLFNGYEDLDTFKLLEEEDLDELNIRDPEHRAVLLTAVELLQEYDSN [L13Q] | -0.447 ± 0.081 |
| GRPPQPKSVEDLADRINLKEHMPTFLFNGYEDLDTFKLLEEEDLDELNIRDPEHRAVLLTAVELLQEYDSN [L13A] | -0.788 ± 0.075 |
| GRPPQPKSVEDLMDRINLKEHMPTFLFNGYEDLDTFKLLEEEDLDELNIRDPEHRAVLLTAVELLQEYDSN [L13M] | -0.724 ± 0.077 |
| GRPPQPKSVEDLPDRINLKEHMPTFLFNGYEDLDTFKLLEEEDLDELNIRDPEHRAVLLTAVELLQEYDSN [L13P] | -0.71 ± 0.07 |
| GRPPQPKSVEDLHDRINLKEHMPTFLFNGYEDLDTFKLLEEEDLDELNIRDPEHRAVLLTAVELLQEYDSN [L13H] | -0.801 ± 0.096 |
| GRPPQPKSVEDLGDRINLKEHMPTFLFNGYEDLDTFKLLEEEDLDELNIRDPEHRAVLLTAVELLQEYDSN [L13G] | -0.752 ± 0.072 |
| GRPPQPKSVEDLRDRINLKEHMPTFLFNGYEDLDTFKLLEEEDLDELNIRDPEHRAVLLTAVELLQEYDSN [L13R] | -0.803 ± 0.06 |
| GRPPQPKSVEDLNDRINLKEHMPTFLFNGYEDLDTFKLLEEEDLDELNIRDPEHRAVLLTAVELLQEYDSN [L13N] | -0.802 ± 0.091 |
| GRPPQPKSVEDLSDRINLKEHMPTFLFNGYEDLDTFKLLEEEDLDELNIRDPEHRAVLLTAVELLQEYDSN [L13S] | -0.887 ± 0.068 |
| GRPPQPKSVEDLKDRINLKEHMPTFLFNGYEDLDTFKLLEEEDLDELNIRDPEHRAVLLTAVELLQEYDSN [L13K] | -0.715 ± 0.08 |
| GRPPQPKSVEDLIDRINLKEHMPTFLFNGYEDLDTFKLLEEEDLDELNIRDPEHRAVLLTAVELLQEYDSN [L13I] | -1.04 ± 0.11 |
| GRPPQPKSVEDLFDRINLKEHMPTFLFNGYEDLDTFKLLEEEDLDELNIRDPEHRAVLLTAVELLQEYDSN [L13F] | -0.576 ± 0.071 |
| GRPPQPKSVEDPLDRINLKEHMPTFLFNGYEDLDTFKLLEEEDLDELNIRDPEHRAVLLTAVELLQEYDSN [L12P] | -0.916 ± 0.093 |
| GRPPQPKSVEDALDRINLKEHMPTFLFNGYEDLDTFKLLEEEDLDELNIRDPEHRAVLLTAVELLQEYDSN [L12A] | -0.846 ± 0.065 |
| GRPPQPKSVEDSLDRINLKEHMPTFLFNGYEDLDTFKLLEEEDLDELNIRDPEHRAVLLTAVELLQEYDSN [L12S] | -0.75 ± 0.057 |
| GRPPQPKSVEDNLDRINLKEHMPTFLFNGYEDLDTFKLLEEEDLDELNIRDPEHRAVLLTAVELLQEYDSN [L12N] | -0.794 ± 0.088 |

| Variant | abundance fitness |
| --- | --- |
| GRPPQPKSVEDTLDRINLKEHMPTFLFNGYEDLDTFKLLEEEDLDELNIRDPEHRAVLLTAVELLQEYDSN [L12T] | -0.829 ± 0.071 |
| GRPPQPKSVEDKLDRINLKEHMPTFLFNGYEDLDTFKLLEEEDLDELNIRDPEHRAVLLTAVELLQEYDSN [L12K] | -0.99 ± 0.12 |
| GRPPQPKSVEDILDRINLKEHMPTFLFNGYEDLDTFKLLEEEDLDELNIRDPEHRAVLLTAVELLQEYDSN [L12I] | -0.328 ± 0.067 |
| GRPPQPKSVEDYLDRINLKEHMPTFLFNGYEDLDTFKLLEEEDLDELNIRDPEHRAVLLTAVELLQEYDSN [L12Y] | -0.672 ± 0.087 |
| GRPPQPKSVEDDLDRINLKEHMPTFLFNGYEDLDTFKLLEEEDLDELNIRDPEHRAVLLTAVELLQEYDSN [L12D] | -0.784 ± 0.089 |
| GRPPQPKSVEDVLDRINLKEHMPTFLFNGYEDLDTFKLLEEEDLDELNIRDPEHRAVLLTAVELLQEYDSN [L12V] | -0.464 ± 0.045 |
| GRPPQPKSVEDQLDRINLKEHMPTFLFNGYEDLDTFKLLEEEDLDELNIRDPEHRAVLLTAVELLQEYDSN [L12Q] | -0.679 ± 0.077 |
| GRPPQPKSVEDELDRINLKEHMPTFLFNGYEDLDTFKLLEEEDLDELNIRDPEHRAVLLTAVELLQEYDSN [L12E] | -0.768 ± 0.084 |
| GRPPQPKSVEDHLDRINLKEHMPTFLFNGYEDLDTFKLLEEEDLDELNIRDPEHRAVLLTAVELLQEYDSN [L12H] | -0.924 ± 0.096 |
| GRPPQPKSVEDCLDRINLKEHMPTFLFNGYEDLDTFKLLEEEDLDELNIRDPEHRAVLLTAVELLQEYDSN [L12C] | -0.654 ± 0.077 |
| GRPPQPKSPEDLLDRINLKEHMPTFLFNGYEDLDTFKLLEEEDLDELNIRDPEHRAVLLTAVELLQEYDSN [V9P] | -0.632 ± 0.063 |
| GRPPQPKSLEDLLDRINLKEHMPTFLFNGYEDLDTFKLLEEEDLDELNIRDPEHRAVLLTAVELLQEYDSN [V9L] | 0.032 ± 0.035 |
| GRPPQPKSTEDLLDRINLKEHMPTFLFNGYEDLDTFKLLEEEDLDELNIRDPEHRAVLLTAVELLQEYDSN [V9T] | -0.701 ± 0.056 |
| GRPPQPKSQEDLLDRINLKEHMPTFLFNGYEDLDTFKLLEEEDLDELNIRDPEHRAVLLTAVELLQEYDSN [V9Q] | -0.796 ± 0.087 |
| GRPPQPKSWEDLLDRINLKEHMPTFLFNGYEDLDTFKLLEEEDLDELNIRDPEHRAVLLTAVELLQEYDSN [V9W] | -1.05 ± 0.17 |
| GRPPQPKSYEDLLDRINLKEHMPTFLFNGYEDLDTFKLLEEEDLDELNIRDPEHRAVLLTAVELLQEYDSN [V9Y] | -0.883 ± 0.087 |
| GRPPQPKSMEDLLDRINLKEHMPTFLFNGYEDLDTFKLLEEEDLDELNIRDPEHRAVLLTAVELLQEYDSN [V9M] | -0.52 ± 0.07 |
| GRPPQPKSHEDLLDRINLKEHMPTFLFNGYEDLDTFKLLEEEDLDELNIRDPEHRAVLLTAVELLQEYDSN [V9H] | -0.909 ± 0.079 |
| GRPPQPKSKEDLLDRINLKEHMPTFLFNGYEDLDTFKLLEEEDLDELNIRDPEHRAVLLTAVELLQEYDSN [V9K] | -0.701 ± 0.077 |
